Measured values published in US20230312742A1 (Y MABS THERAPEUTICS, published 2023).
Residue numbers refer to the chain shown, from its start. Numbers in names are those of the source.

B1: 8DC1OK (CD3xCD38 bispecific antibody, IgG-L-scFv format, chimeric AT13/5 VL and VH) (bispecific antibody)
light: DIQLTQSPSSFSVSLGDRVTITCKASEDIYNRLTWYQQKPGNAPRLLISGATSLETGVPSRFSGSGSGKDYTLSITSLQTEDVATYYCQQYWSNPYTFGGGTKLEIRRTVAAPSVFIFPPSDEQLKSGTASVVCLLNNFYPREAKVQWKVDNALQSGNSQESVTEQDSKDSTYSLSSTLTLSKADYEKHKVYACEVTHQGLSSPVTKSFNRGECGGGGSGGGGSGGGGSGGGGSQVQLVQSGGGVVQPGRSLRLSCKASGYTFTRYTMHWVRQAPGKCLEWIGYINPSRGYTNYNQKFKDRFTISRDNSKNTAFLQMDSLRPEDTGVYFCARYYDDHYSLDYWGQGTPVTVSSGGGGSGGGGSGGGGSGGGGSGGGGSGGGGSDIQMTQSPSSLSASVGDRVTITCSASSSVSYMNWYQQTPGKAPKRWIYDTSKLASGVPSRFSGSGSGTDYTFTISSLQPEDIATYYCQQWSSNPFTFGCGTKLQITR
heavy: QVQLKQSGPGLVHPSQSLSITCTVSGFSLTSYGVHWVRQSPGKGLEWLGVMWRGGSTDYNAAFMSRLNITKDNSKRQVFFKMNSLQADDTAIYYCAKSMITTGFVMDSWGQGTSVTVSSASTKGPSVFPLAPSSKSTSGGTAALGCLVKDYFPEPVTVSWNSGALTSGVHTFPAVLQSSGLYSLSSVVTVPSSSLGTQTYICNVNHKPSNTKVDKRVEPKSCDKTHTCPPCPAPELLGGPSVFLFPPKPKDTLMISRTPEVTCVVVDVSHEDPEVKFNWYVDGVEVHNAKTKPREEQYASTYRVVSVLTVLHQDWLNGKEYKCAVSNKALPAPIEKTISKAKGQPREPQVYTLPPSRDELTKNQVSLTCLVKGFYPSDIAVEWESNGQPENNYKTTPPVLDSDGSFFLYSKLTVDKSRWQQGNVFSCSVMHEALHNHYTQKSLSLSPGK
notes: Light chain: anti-CD38 VL-CL-(G4S)4-huOKT3 VH-(G4S)6-huOKT3 VL; also called the chimeric antibody 8DC1OK
B2: L1H1 (antibody, V domains shown)
VH: QVQLQESGPGLVKPSETLSLTCTVSGFSLTSYGVHWIRQPPGKGLEWIGVMWRGGSTDYNPSLKSRVTISKDNSKRQFSLKLSSVTAADTAVYYCAKSMITTGFVMDSWGQGTLVTVSS
VL: DIQMTQSPSSLSASVGDRVTITCRASEDIYNRLTWYQQKPGKAPKLLLSGATSLETGVPSRFSGSGSGKDYTLTISSLQPEDFATYYCQQYWSNPYTFGGGTKVEIK
notes: Humanized AT13/5 IgG, VL1 + VH1
B3: L4H6 (antibody, V domains shown)
VH: B2 VH with I48L, D58N, N73T, R76N
VL: B2 VL with S49Y
notes: Humanized AT13/5 IgG, VL4 + VH6
B4: L2H2 (antibody, V domains shown)
VH: B2 VH with I37V, L82M
VL: B2 VL with T34A, K69T
notes: Humanized AT13/5 IgG, VL2 + VH2
B5: L1H3 (antibody, V domains shown)
VH: B2 VH with L20I, N73T, R76N, V85L
VL: B2 VL
notes: Humanized AT13/5 IgG, VL1 + VH3
B6: L1H7 (antibody, V domains shown)
VH: B2 VH with Q5K, E6Q, D58N, V67L, K71V, N73T, R76N
VL: B2 VL
notes: Humanized AT13/5 IgG, VL1 + VH7
B7: L3H6 (antibody, V domains shown)
VH: B2 VH with I48L, D58N, N73T, R76N
VL: B2 VL with K69T
notes: Humanized AT13/5 IgG, VL3 + VH6
B8: L1H4 (antibody, V domains shown)
VH: B2 VH with K71V, N73T, F78V
VL: B2 VL
notes: Humanized AT13/5 IgG, VL1 + VH4
B9: L4H4 (antibody, V domains shown)
VH: B2 VH with K71V, N73T, F78V
VL: B2 VL with S49Y
notes: Humanized AT13/5 IgG, VL4 + VH4
B10: L3H7 (antibody, V domains shown)
VH: B2 VH with Q5K, E6Q, D58N, V67L, K71V, N73T, R76N
VL: B2 VL with K69T
notes: Humanized AT13/5 IgG, VL3 + VH7
B11: L1H2 (antibody, V domains shown)
VH: B2 VH with I37V, L82M
VL: B2 VL
notes: Humanized AT13/5 IgG, VL1 + VH2
B12: L3H2 (antibody, V domains shown)
VH: B2 VH with I37V, L82M
VL: B2 VL with K69T
notes: Humanized AT13/5 IgG, VL3 + VH2
B13: L1H6 (antibody, V domains shown)
VH: B2 VH with I48L, D58N, N73T, R76N
VL: B2 VL
notes: Humanized AT13/5 IgG, VL1 + VH6
B14: L4H2 (antibody, V domains shown)
VH: B2 VH with I37V, L82M
VL: B2 VL with S49Y
notes: Humanized AT13/5 IgG, VL4 + VH2
B15: L2H6 (antibody, V domains shown)
VH: B2 VH with I48L, D58N, N73T, R76N
VL: B2 VL with T34A, K69T
notes: Humanized AT13/5 IgG, VL2 + VH6
B16: L3H3 (antibody, V domains shown)
VH: B2 VH with L20I, N73T, R76N, V85L
VL: B2 VL with K69T
notes: Humanized AT13/5 IgG, VL3 + VH3
B17: L2H3 (antibody, V domains shown)
VH: B2 VH with L20I, N73T, R76N, V85L
VL: B2 VL with T34A, K69T
notes: Humanized AT13/5 IgG, VL2 + VH3
B18: L4H5 (antibody, V domains shown)
VH: B2 VH with K71V, N73T, R76N, L80F, V92I
VL: B2 VL with S49Y
notes: Humanized AT13/5 IgG, VL4 + VH5
B19: L4H1 (antibody, V domains shown)
VH: B2 VH
VL: B2 VL with S49Y
notes: Humanized AT13/5 IgG, VL4 + VH1
B20: L1H5 (antibody, V domains shown)
VH: B2 VH with K71V, N73T, R76N, L80F, V92I
VL: B2 VL
notes: Humanized AT13/5 IgG, VL1 + VH5
B21: L3H4 (antibody, V domains shown)
VH: B2 VH with K71V, N73T, F78V
VL: B2 VL with K69T
notes: Humanized AT13/5 IgG, VL3 + VH4
B22: L2H1 (antibody, V domains shown)
VH: B2 VH
VL: B2 VL with T34A, K69T
notes: Humanized AT13/5 IgG, VL2 + VH1
B23: L2H7 (antibody, V domains shown)
VH: B2 VH with Q5K, E6Q, D58N, V67L, K71V, N73T, R76N
VL: B2 VL with T34A, K69T
notes: Humanized AT13/5 IgG, VL2 + VH7
B24: L4H3 (antibody, V domains shown)
VH: B2 VH with L20I, N73T, R76N, V85L
VL: B2 VL with S49Y
notes: Humanized AT13/5 IgG, VL4 + VH3
B25: L3H1 (antibody, V domains shown)
VH: B2 VH
VL: B2 VL with K69T
notes: Humanized AT13/5 IgG, VL3 + VH1
B26: L4H7 (antibody, V domains shown)
VH: B2 VH with Q5K, E6Q, D58N, V67L, K71V, N73T, R76N
VL: B2 VL with S49Y
notes: Humanized AT13/5 IgG, VL4 + VH7
B27: Chimeric (chimeric AT13/5 anti-CD38 IgG) (antibody, V domains shown)
VH: QVQLKQSGPGLVHPSQSLSITCTVSGFSLTSYGVHWVRQSPGKGLEWLGVMWRGGSTDYNAAFMSRLNITKDNSKRQVFFKMNSLQADDTAIYYCAKSMITTGFVMDSWGQGTSVTVSS
VL: DIQLTQSPSSFSVSLGDRVTITCKASEDIYNRLTWYQQKPGNAPRLLISGATSLETGVPSRFSGSGSGKDYTLSITSLQTEDVATYYCQQYWSNPYTFGGGTKLEIR
notes: IgG format, captured on anti-human Fc; chimeric VL + chimeric VH (murine AT13/5 variable regions)

Target: T1, human CD38 antigen (recombinant human CD38 protein) (human, UniProt P28907 43-300, limits assumed)
Assay: SPR, BsAb (1 µg/ml) captured on anti-human Fc chip, human CD38 in solution; average, N=6

B1 was tested, and the Kd was 1.6 nM.

With B1 the koff was 0.00076 s⁻¹.

B1 showed a kon of 470000 M⁻¹ s⁻¹.

Target: T1, human CD38 antigen (recombinant human …)
Assay: SPR, IgG captured on anti-human Fc, human CD38 in solution;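 further: humanized IgG captured on an amine-coupled anti-human Fc HC30M chip, with human CD38 injected as a dilution series from 1000 nM downward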

Compared with B2, B3 is 1.5-fold lower in Kd: 870 nM for the first, 580 nM for the second.

B4 and B5 are within 1.5-fold of each other in Kd: 910 nM for the first, 810 nM for the second.

First: B6
Second: B7
The Kd of the first is 6.5-fold higher: 8500 nM for the first, 1300 nM for the second. The second binds more tightly here.

Going from B8 to B9, the Kd falls from 300 nM to 140 nM (2.1-fold).

Going from B10 to B11, the Kd rises from 100 nM to 400 nM (4-fold). The first binds more tightly here.

Going from B12 to B13, the Kd falls from 460 nM to 31 nM (15-fold).

Compared with B14, B15 is 7.6-fold higher in Kd: 250 nM for the first, 1900 nM for the second. The first binds more tightly here.

B16 and B17 are within 1.5-fold of each other in Kd: 1200 nM for the first, 830 nM for the second.

First: B18
Second: B19
The Kd of the first is 3.2-fold higher: 320 nM for the first, 100 nM for the second. The second binds more tightly here.

Compared with B20, B21 is 1.5-fold lower in Kd: 1800 nM for the first, 1200 nM for the second.

Going from B22 to B23, the Kd falls from 950 nM to 390 nM (2.4-fold). The second binds more tightly here.

Going from B24 to B25, the Kd rises from 200 nM to 650 nM (3.2-fold).

Going from B26 to B27, the Kd falls from 870 nM to 2.8 nM (310-fold).

Target: T2, CD38 on CD38(+) cancer cells (RPMI8226, Raji, Daudi) (UniProt P28907 1-300, limits assumed)
T2 construct: whole, on cells; Endogenous CD38 on tumour cell lines; also called CD38(+) tumor cells; CD38(+) Raji cells
Assay: flow cytometry on RPMI8226 cells

B1 was tested, and the EC50 was 0.076 µg/mL.
